Results: IntAct's records for PubMed 21111240

How the values were obtained:
straa_mouse Strada = straa_mouse Strada (UniProt Q3UUJ4)
goga2_mouse Golga2 = goga2_mouse Golga2 (UniProt Q921M4)
goga2_mouse Golga2, sequence (Q921M4 whole entry): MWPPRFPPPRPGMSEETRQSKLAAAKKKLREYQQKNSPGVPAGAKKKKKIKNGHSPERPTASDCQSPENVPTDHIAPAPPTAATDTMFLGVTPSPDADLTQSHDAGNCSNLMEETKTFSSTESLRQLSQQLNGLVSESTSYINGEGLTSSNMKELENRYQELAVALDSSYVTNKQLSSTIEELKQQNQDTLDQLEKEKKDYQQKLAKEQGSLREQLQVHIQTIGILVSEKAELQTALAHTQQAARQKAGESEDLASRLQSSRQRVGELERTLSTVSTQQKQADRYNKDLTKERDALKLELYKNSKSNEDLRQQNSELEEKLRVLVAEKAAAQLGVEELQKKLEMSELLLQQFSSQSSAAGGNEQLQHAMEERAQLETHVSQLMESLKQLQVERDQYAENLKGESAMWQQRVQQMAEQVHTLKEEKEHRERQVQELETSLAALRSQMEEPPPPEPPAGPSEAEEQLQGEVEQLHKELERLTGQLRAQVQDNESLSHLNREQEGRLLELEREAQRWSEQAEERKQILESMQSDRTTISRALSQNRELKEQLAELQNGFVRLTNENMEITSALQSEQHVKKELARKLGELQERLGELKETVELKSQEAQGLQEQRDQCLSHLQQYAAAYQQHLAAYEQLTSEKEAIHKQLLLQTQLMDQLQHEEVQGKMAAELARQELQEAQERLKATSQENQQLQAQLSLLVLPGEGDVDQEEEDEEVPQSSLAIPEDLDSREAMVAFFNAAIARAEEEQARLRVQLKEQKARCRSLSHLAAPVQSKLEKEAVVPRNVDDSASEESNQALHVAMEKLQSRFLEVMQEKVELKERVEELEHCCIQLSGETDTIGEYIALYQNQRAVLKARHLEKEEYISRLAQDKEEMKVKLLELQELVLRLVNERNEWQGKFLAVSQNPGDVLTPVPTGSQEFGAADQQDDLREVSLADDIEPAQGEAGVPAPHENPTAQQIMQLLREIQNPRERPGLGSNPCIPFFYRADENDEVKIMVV

Serine/threonine-protein kinase 25 (Mus musculus), Q9Z2W1 K49R, sequence (Q9Z2W1 whole entry K49R): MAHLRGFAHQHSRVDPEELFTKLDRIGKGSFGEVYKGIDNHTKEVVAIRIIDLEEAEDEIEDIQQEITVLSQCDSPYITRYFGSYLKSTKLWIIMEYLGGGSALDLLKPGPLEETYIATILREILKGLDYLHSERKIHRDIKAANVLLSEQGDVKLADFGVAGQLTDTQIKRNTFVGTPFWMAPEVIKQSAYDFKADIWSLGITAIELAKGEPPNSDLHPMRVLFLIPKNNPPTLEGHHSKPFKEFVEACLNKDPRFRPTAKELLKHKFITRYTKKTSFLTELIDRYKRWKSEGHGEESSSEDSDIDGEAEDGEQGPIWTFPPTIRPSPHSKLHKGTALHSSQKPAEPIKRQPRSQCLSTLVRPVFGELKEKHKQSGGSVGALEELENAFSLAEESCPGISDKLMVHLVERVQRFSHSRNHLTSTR
straa_mouse Strada, sequence (Q3UUJ4 whole entry): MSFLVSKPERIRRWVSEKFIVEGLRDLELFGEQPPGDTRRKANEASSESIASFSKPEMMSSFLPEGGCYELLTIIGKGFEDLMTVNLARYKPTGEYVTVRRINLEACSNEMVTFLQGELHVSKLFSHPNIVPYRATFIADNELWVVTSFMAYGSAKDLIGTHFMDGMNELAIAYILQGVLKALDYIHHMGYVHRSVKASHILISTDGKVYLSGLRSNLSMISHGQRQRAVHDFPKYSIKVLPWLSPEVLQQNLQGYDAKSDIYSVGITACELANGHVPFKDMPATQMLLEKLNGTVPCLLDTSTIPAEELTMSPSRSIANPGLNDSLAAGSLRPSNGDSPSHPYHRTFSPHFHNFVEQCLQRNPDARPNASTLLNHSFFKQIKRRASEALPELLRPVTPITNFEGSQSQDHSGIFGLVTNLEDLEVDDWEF

effect of a mutation on the interaction (straa_mouse Strada): decreasing interaction
effect of a mutation on the interaction (goga2_mouse Golga2): increasing interaction
Substance: Serine/threonine-protein kinase 25 (Mus musculus), Q9Z2W1 K49R
